Patent publication US20230071889A1

Columns and labels:
[1] = target: T1, CD132 receptor (Sinobiological 10555-H08B) (UniProt P31785); experiment: Biacore, CD132 injected over the CD127/IL-7 complex on the chip
T1 sequence (looked up): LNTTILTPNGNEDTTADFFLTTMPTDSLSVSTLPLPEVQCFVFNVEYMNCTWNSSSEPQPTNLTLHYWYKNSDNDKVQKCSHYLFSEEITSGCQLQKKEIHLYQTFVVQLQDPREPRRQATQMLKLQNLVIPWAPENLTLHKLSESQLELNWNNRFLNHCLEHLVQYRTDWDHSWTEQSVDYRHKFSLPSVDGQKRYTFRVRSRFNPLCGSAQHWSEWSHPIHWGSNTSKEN

[2] = target: T2, CD127 (Sinobiological, 10975-H03H-50) (UniProt P16871); experiment: Biacore, CD127 immobilised on CM5 chip; bivalent model
T2 sequence (looked up): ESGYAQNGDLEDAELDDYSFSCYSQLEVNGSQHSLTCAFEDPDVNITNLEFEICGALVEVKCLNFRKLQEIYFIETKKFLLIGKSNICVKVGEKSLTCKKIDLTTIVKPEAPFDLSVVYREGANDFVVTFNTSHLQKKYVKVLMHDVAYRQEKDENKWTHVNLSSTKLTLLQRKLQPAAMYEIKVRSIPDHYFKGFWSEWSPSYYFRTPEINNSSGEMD

[3] = target: T1, CD132 receptor (Sinobiological 10555-H08B); experiment: Biacore, CD132 injected over immobilised CD127 + IgG4 alone; steady-state model; baseline, CD127 dimerizes with CD132 in the absence of IL-7

Kd [1] [nM] | Kd [2] [nM] | Kd [3] [nM] | Substance
505 | 6.3 | – | IL-7 fused to Fc domain (IL7-Fc, CHI-HF-22007 Adipogen) (Fc fusion)
– | – | 2500 | IgG4 alone (antibody)
